Source: patent publication US20190112392A1 (Ablynx, published 2019)

Legend:
[1] = biological target: T1, T cell receptor alpha/beta on purified primary human T cells (human, UniProt P01848 1-140; P01850 1-176); experiment: flow cytometry on primary human T cells, MeanFI (PE)
T1 construct: whole, on cells; also called human primary T cells
T1 TCR alpha (looked up): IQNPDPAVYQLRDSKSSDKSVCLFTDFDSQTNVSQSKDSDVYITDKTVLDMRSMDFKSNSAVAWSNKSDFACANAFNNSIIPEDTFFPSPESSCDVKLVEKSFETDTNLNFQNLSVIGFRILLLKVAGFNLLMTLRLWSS
T1 TCR beta (looked up): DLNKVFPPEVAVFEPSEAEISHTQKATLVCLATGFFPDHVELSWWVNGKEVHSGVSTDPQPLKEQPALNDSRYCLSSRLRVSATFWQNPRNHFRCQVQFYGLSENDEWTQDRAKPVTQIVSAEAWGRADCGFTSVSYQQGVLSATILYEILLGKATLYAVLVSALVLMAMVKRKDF

[2] = biological target: T2, EGFR on cells (UniProt P00533 25-1210, limits assumed); experiment: flow cytometry, LoVo cells; design: Top: unit not given here
T2 construct: whole, on cells; also called HER14 cells (NIH3T3 transfected with EGFR); EGFR on LS174T and LoVo cells

[3] = biological target: T2, EGFR on cells; experiment: flow cytometry, LS174T cells; design: Top: unit not given here
[4] = biological target: T2, EGFR on cells; experiment: flow cytometry, HER14 cells
[5] = biological target: T3, hEGFR (Sino Biological, #10001-H08H) (human, UniProt P00533 25-645); experiment: SPR (Biacore T100), immobilized hEGFR, 1:1 model
T3 construct: extracellular domain; Bought protein; also called hEGFR ECD; human EGFR protein
Procedure: (§1) Thereto, hEGFR (Sino Biological, #10001-H08H) was immobilized onto a CM5 chip via amine coupling, using EDC and NHS chemistry. Purified Nanobodies were injected for 2 minutes at different concentrations (between 1.37 and 3000 nM) and allowed to dissociate for 15 min at a flow rate of 45 μl/min. In between sample injections, the surfaces were regenerated with 50 mM NaOH. HBS-EP+(Hepes buffer pH7.4) was used as running buffer.
(§2) The kinetic constants were calculated from the sensorgrams using the BIAEvaluation software (1:1 interaction). The affinity constants (KD) were calculated from resulting association and dissociation rate constants kon and koff, and are shown in Table C-29.

[6] = biological target: T4, hCEACAM-5 (R&D Systems, #4128-CM) (human, UniProt P06731 35-685); experiment: SPR (Biacore T100), immobilized hCEACAM-5, 1:1 model
T4 construct: Bought protein; also called human CEACAM5 protein
T4 sequence (looked up): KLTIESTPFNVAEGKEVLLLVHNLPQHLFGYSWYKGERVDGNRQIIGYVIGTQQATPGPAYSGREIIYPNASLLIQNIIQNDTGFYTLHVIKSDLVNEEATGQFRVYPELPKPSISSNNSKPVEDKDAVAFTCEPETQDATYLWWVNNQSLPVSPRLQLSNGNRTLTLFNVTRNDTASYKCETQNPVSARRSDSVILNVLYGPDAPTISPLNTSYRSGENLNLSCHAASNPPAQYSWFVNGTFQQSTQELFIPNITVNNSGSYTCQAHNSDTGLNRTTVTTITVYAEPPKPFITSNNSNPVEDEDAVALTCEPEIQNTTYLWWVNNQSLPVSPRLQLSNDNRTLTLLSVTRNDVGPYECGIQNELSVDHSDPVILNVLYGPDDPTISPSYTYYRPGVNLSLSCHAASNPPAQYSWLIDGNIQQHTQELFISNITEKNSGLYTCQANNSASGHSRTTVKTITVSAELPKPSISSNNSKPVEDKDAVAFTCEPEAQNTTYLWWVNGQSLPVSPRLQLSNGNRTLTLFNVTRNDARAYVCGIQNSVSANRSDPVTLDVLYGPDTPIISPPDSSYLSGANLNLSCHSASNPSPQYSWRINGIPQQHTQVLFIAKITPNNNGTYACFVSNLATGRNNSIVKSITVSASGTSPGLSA
Procedure: as §1, with “hCEACAM-5 (R&D Systems, #4128-CM)” for “hEGFR (Sino Biological, #10001-H08H)”, “0.31” for “1.37”, “2000” for “3000”, “10” for “50”, “Glycine pH 1.5.” for “NaOH.”
as §2

[7] = biological target: T2, EGFR on cells; experiment: flow cytometry on HER14 cells, MeanFI (PE)
[8] = biological target: T5, CEACAM5 on cells (UniProt P06731 35-685); experiment: flow cytometry, LoVo cells; design: Top: unit not given here
T5 construct: whole, on cells; also called CEACAM5 on LS174T and LoVo cells
T5 sequence (looked up): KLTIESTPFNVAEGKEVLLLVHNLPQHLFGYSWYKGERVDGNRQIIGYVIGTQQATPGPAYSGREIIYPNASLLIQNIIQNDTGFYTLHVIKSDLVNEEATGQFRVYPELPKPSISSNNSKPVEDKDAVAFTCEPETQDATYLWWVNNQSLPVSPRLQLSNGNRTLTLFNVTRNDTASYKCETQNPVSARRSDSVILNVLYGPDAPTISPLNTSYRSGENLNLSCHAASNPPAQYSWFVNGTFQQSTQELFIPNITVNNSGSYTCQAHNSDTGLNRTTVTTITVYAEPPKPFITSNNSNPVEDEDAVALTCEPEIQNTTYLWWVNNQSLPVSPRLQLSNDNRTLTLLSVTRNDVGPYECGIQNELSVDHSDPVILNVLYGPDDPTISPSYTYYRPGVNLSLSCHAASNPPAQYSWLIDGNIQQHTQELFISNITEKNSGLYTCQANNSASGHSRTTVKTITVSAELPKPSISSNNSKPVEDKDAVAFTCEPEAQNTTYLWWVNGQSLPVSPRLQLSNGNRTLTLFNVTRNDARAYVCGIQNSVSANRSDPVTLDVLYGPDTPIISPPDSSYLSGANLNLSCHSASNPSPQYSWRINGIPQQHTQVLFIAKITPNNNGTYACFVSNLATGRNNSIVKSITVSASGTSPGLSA

[9] = biological target: T5, CEACAM5 on cells; experiment: flow cytometry, LS174T cells; design: Top: unit not given here
[10] = biological target: T6, soluble recombinant cynomolgus TCR alpha/beta-zipper protein (cynomolgus/rhesus monkey); experiment: ELISA, coated soluble cynomolgus TCR-zipper
T6 construct: Made in house in CHOK1SV cells; extracellular domains fused to a zipper protein; also called cynoTCR-zipper protein; not shown: zipper protein (O'Shea et al. 1993)
T6 V domain 1: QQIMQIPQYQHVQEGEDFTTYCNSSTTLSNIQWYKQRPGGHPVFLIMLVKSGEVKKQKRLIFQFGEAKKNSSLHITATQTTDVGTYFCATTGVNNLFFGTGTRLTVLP
T6 V domain 2: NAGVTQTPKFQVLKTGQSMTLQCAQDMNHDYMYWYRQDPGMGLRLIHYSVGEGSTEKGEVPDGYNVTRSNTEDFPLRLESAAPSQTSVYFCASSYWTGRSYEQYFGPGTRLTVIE
Procedure: Quality of the TCR α/β zipper proteins was assessed in an ELISA binding assay. Maxisorp 96-well ELISA plates (Nunc) were coated with 2 μg/mL soluble recombinant human TCR α/β (2XN9)-zipper protein or soluble recombinant cynomolgus TCR α/β-zipper protein. After an overnight incubation, plates were washed and blocked with PBS+1% casein for 1 h at room temperature. Next, plates were incubated with serial dilutions of either a functional flag tagged Nanobody or the functional mouse IgG anti-non-human primate/Rat TCRα/β antibody, clone R73 (eBioscience 16-5960) for 1 h at room temperature while shaking, washed again and incubated with mouse anti-flag-HRP (Sigma, #A8592) respectively rabbit anti-mouse-HRP (Dako, # P0260). After 1 h, TMB One Solution (Promega #G7431) was added. The reaction was stopped with 2M H₂SO₄ and the dose dependent binding was determined by measuring the OD at 450 nm using the Tecan sunrise 4 (FIG. 2).
Binding of purified monovalent anti-TCR Nanobodies to soluble recombinant cynomolgus TCR c/3 protein was evaluated in ELISA (as described in Example 1.2) using 2 μg/ml directly coated recombinant soluble cynomolgus TCR-α/β zipper protein.

[11] = biological target: T7, human CD3 expressed on HEK293H cells (human, UniProt P04234 22-171; P09693 23-182; P07766 23-207; P20963 22-164); experiment: flow cytometry on HEK293H human CD3 cells, MCF
T7 construct: also called HEK293H human CD3; HEK293H CD3
Procedure: (§3) Binding of purified monovalent anti-TCR Nanobodies to human TCR(2IAN)/CD3 expressed on HEK293H cells was evaluated and compared with the binding to HEK293H cells transfected with human CD3 in flow cytometry, as outlined in Example 5. Dilution series of anti-TCR Nanobodies starting from 1 μM were applied to the cells. The parental HEK293H cell line was included as TCR/CD3 negative cell line.

[12] = biological target: T6, soluble recombinant cynomolgus TCR …; experiment: BLI (Octet RED384), immobilized cynomolgus TCR-zipper
[13] = biological target: T7, human CD3 expressed on HEK293H cells; experiment: flow cytometry, HEK293H human CD3 cells
Procedure: as §3
Nanobodies clearly bound to human TCR(2IAN)/CD3 expressed on HEK293H but not to the HEK293H cells transfected with human CD3 only, nor to the HEK293H parental cell line. The EC50 values obtained from the dose response curve are depicted in Table C-2.

[14] = biological target: T1, T cell receptor alpha/beta on purified …; experiment: flow cytometry, purified primary human T cells
Procedure: Periplasmic extracts were screened for cell expressed TCR/CD3 binding using human TCR/CD3 transfected CHO-K1 or HEK293H cells and the respective CHO-K1 or HEK293H reference cell line in a mixed cell line setup. To this end, a large batch of the reference cell lines were labelled with 8 μM PKH26 and frozen. 5×10⁴ PKH labelled reference cells were mixed with 5×10⁴ target cells and incubated with periplasmic extracts for 30 min at 4′C, and washed 3 times. […] Samples were washed, resuspended in FACS Buffer (D-PBS from Gibco, with 10% FBS from Sigma and 0.05% sodium azide from Merck) and then analysed via a BD FACSArray. […] In this gate, 20,000 cells were counted during acquisition. Based on PKH26-SSC distribution, the PKH labelled parental population and the human TCR/CD3 unlabelled target population was selected. For these 2 populations the mean APC value was calculated.
Binding of purified monovalent anti-TCR Nanobodies to human TCR(2XN9)/CD3 expressed on CHO-K1 cells and to purified primary human T cells was evaluated in flow cytometry as outlined in Example 4.1.

[15] = biological target: T6, soluble recombinant cynomolgus TCR …; experiment: BLI (Octet RED384), immobilized cynomolgus TCR-zipper
Procedure: Binding affinities were measured using Bio-Layer Interferometry (BLI) on an Octet RED384 instrument (Pall ForteBio Corp.). Recombinant human soluble TCR(2XN9)-zipper protein was covalently immobilized on amine-reactive sensors (ForteBio) via NHS/EDC coupling chemistry. For kinetic analysis, sensors were first dipped into running buffer (10 mM Hepes, 150 mM NaCl, 0.05% p20, pH7.4 from GE Healthcare Life Sciences) to determine baseline setting. […] Affinity constants (KD) were calculated applying a 1:1 interaction model using the ForteBio Data Analysis software.
Binding affinities of the monovalent anti-TCR Nanobodies were measured using Bio-Layer Interferometry (BLI) on an Octet RED384 instrument (Pall ForteBio Corp.) essentially as described in Example 7.1 using cynomolgus TCR α/β zipper.

B1: EGFR038G07 (VHH)
VHH: EVQLVESGGGLVQAGGSLRLSCAASGRTFSSYVMGWFRQATGKEREFVATIAWDSGSTYYADSVKGRFTISRDNAKNTVHLQMNSLKPEDTAVYYCAASYNVYYNNYYYPISRDEYDYWGQGTLVTVSS
notes: Monovalent Nanobody; also called monovalent anti-EGFR Nanobody; EGFR monovalent Nanobody
binding result [1]: no binding (tested: 5e-7 M)
EC50 [2]: 0.54 nM
Top [2]: 52300
EC50 [3]: 0.93 nM
Top [3]: 32200
EC50 [4]: 1.8 nM
Top [4]: 166000
Kd [5]: 0.763 nM
koff [5]: 0.000426 s⁻¹
kon [5]: 558000 M⁻¹ s⁻¹

B2: NbCEA5 (VHH)
VHH: EVQLVESGGGSVQAGGSLRLSCAASGDTYGSYWMGWFRQAPGKEREGVAAINRGGGYTVYADSVKGRFTISRDTAKNTVYLQMNSLRPDDTADYYCAASGVLGGLHEDWFNYWGQGTLVTVSS
notes: Monovalent Nanobody; also called CEA#1; monovalent anti-CEA Nanobody
binding result [1]: no binding (tested: 5e-7 M)
Kd [6]: 0.51 nM
koff [6]: 0.00051 s⁻¹
kon [6]: 990000 M⁻¹ s⁻¹
binding result [7]: no binding (tested: 5e-7 M)
EC50 [8]: 1.2 nM
Top [8]: 11200
EC50 [9]: 0.59 nM
Top [9]: 43000

B3: T0170055A02 (VHH)
VHH: EVQLVESGGGLVQPGGSLRLSCAASGDVHKINILGWYRQAPAKEREMVAHITIGDATDYADSAKGRFTISRDEAKNMVYLQMNSLKPEDTAVYFCRAYSRIYPYNYWGQGTLVTVSS
notes: Monovalent anti-TCR Nanobody, cluster A; expressed in E. coli as triple Flag, His6-tagged protein; also called T0170PMP055A02; T01700055A02; not shown: C-terminal triple Flag-His6 tag of the E. coli-made monovalent Nanobody
EC50 [10]: 160 nM
binding result [11]: no binding (tested: 1e-6 M)
fold lower affinity than for soluble recombinant human TCR α/β zipper [12]: 10 fold
MCF at 1 µM [13]: 1190 MCF
EC50 [14]: 91 nM
Kd [15]: 210 nM
koff [15]: 0.024 s⁻¹
kon [15]: 110000 M⁻¹ s⁻¹

B4: T0170056G05 (VHH)
VHH: EVQLVESGGGLVQPGGSLRLSCVASGDVHKINFLGWYRQAPGKEREKVAHISIGDQTDYADSAKGRFTISRDESKNMVYLQMNSLKPEDTAVYFCRAFSRIYPYDYWGQGTLVTVSS
notes: Monovalent anti-TCR Nanobody, cluster A; expressed in E. coli as triple Flag, His6-tagged protein; also called T0170PMP056G05; T01700056G05; not shown: C-terminal triple Flag-His6 tag of the E. coli-made monovalent Nanobody
EC50 [10]: 77 nM
binding result [11]: no binding (tested: 1e-6 M)
binding result [7]: no binding (tested: 5e-7 M)
fold lower affinity than for soluble recombinant human TCR α/β zipper [12]: 10 fold
MCF at 1 µM [13]: 352 MCF
EC50 [14]: 91 nM
Kd [15]: 150 nM
koff [15]: 0.016 s⁻¹
kon [15]: 110000 M⁻¹ s⁻¹
